Reference: patent US20240002532A1

Molecular target: HER2 (human epidermal growth factor receptor 2) (human) (UniProt P04626)
Experiment: cell-based or functional assay

maximal cytolysis of SKOV3 tumor cells (xCELLigence, donor T cells, E:T 1:1): 90%
Substance: CasMab250 (H/L)-based CAR with medium spacer (IgG4 hinge & CH3 domain) and CD28-CD3ζ1XX intracellular signaling domains
